This note sets out measurements from patent publication US20160222109A1 (DYAX, published 2016).

In assay [1] the target is T1, soluble monkey FcRn (monkey (cyno), UniProt Q8SPV9 24-297; Q8SPW0 21-119).
T1 construct: also called cyno
Nature of the assay: Biacore, FcRn on chip, pH 6.0.

In assay [2] the target is T2, soluble human FcRn (extra-cellular domain of heavy chain and β2M) (human, UniProt P55899 24-297; P61769 21-119).
T2 construct: also called shFcRn; soluble hFcRn
Put plainly: Biacore, FcRn on chip, pH 6.0.

In assay [3] the target is T1, soluble monkey FcRn. Nature of the assay: Biacore, FcRn on chip, pH 7.4.
Assay [4] concerns the target T2, soluble human FcRn (extra-cellular …). Nature of the assay: Biacore, FcRn on chip, pH 7.4.
Assay [5] has as its target T3, rat FcRn / rat β2M expressed on cells (rat, UniProt P13599 23-366; P07151 21-119).
T3 construct: also called rat FcRn (cells); rat fibroblasts expressing rat FcRn
T3 sequence: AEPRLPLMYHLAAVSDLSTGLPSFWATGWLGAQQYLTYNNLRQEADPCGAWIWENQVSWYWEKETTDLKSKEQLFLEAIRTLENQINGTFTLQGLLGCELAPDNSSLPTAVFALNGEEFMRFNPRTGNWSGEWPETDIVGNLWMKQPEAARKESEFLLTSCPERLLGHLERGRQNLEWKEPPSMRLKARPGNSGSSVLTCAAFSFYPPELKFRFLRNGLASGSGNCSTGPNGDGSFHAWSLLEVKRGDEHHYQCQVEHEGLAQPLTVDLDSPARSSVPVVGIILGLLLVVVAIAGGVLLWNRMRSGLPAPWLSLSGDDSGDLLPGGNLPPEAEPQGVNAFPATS
T3 sequence (b2m): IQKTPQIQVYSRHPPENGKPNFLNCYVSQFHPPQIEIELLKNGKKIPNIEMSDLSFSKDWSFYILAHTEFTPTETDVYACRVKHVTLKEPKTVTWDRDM
Put plainly: FACS binding, Alexa488-mAb, pH 7.4.

In assay [6] the target is T4, murine FcRn / murine β2M expressed on 3T3 cells (mouse, UniProt Q61559 22-365; P01887 21-119).
T4 construct: whole, on cells; also called mouse FcRn; 3T3 FcRn cells
T4 sequence (looked up): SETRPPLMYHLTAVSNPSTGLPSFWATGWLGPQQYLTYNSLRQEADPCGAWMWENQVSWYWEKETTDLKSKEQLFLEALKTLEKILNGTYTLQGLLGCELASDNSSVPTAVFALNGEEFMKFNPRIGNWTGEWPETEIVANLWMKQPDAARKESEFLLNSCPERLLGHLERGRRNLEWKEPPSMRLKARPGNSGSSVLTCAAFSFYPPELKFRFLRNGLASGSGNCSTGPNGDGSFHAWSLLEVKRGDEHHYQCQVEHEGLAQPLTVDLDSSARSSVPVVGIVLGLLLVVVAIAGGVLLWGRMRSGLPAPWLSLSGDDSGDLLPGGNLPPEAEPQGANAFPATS
T4 sequence (b2m, looked up): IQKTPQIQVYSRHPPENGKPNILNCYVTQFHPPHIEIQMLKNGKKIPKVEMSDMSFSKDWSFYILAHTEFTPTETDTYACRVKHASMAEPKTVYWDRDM
Nature of the assay: FACS binding, Alexa488-mAb, pH 7.4.

Assay [7] deals with T2, soluble human FcRn (extra-cellular …). Put plainly: Biacore, FcRn on chip, pH 7.4; pH 7.4; n = 2.

T1 sequence (Q8SPV9 24-297, chain 1 of 2): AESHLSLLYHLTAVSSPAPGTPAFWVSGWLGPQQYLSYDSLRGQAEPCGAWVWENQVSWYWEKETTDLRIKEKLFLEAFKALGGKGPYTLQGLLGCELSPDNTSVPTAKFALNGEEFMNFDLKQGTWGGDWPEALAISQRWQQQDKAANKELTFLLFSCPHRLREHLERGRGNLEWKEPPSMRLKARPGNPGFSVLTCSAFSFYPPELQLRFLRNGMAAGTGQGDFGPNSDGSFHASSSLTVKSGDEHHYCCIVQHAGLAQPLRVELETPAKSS
T1 sequence (Q8SPW0 21-119, chain 2 of 2): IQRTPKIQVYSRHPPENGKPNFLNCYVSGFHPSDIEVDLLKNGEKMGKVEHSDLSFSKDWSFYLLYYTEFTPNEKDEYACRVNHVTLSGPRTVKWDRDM
T2 sequence (P55899 24-297 limits assumed, chain 1 of 2): as the sequence (Q8SPV9 24-297, chain 1 of 2) above, with D39N, Q44E, S99G, G189S, N190S, M217L, T269S counted along it
T2 sequence (P61769 21-119 limits assumed, chain 2 of 2): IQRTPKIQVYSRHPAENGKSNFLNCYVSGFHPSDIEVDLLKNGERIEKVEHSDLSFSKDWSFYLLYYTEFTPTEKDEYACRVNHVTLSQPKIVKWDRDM

B1: 3B3.11 (antibody)
heavy: VKLQESGPELVKPGASVKISCKASGYAFSRSWMNWVKQRPGQGLEWIGRIHPGDGDTNYNGKFKGKATLTVAKSSSTAYMQLSSLTSVDSAVYFCANEGSPYFDYWGQGTTLTVSSAKTTPPSVYPLAPGSAAQTNSMVTLGCLVKGYFPEPVTVTWNSGSLSSGVHTFPAVLQSDLYTLSSSVTVPSSTWPSETVTCNVAHPASSTKVDKKLE
light: DIQLTQSPTTVAASPGEKITITCSASSSISSNYLHWYQQKPGFSPKLLIYRTSNLASGVPARFSGSGSGTSYSLTIGTMEAEDVATYYCQQGSNIPLTFGAGTKLELKRADAAPTVSIFPPSSEQLTSGGASVVCFLNNFYPKDINVKWKIDGSERQNGVLNSWTDQDSKDSTYSMSSTLTLTKDEYERHNSYTCEATHKTSTSPIVKSFNKNE
notes: also called mAb 3B3.11
For the molecule B1, the Kd turned out to be 3.23 nM with soluble monkey FcRn [1], 1.17 nM in assay [2], 3.24 nM in the assay with soluble monkey FcRn [3] and 0.16 nM in assay [4]. Moreover, the koff with soluble monkey FcRn [1] is 0.000552 s⁻¹; in assay [2], 0.000176 s⁻¹; with soluble monkey FcRn [3], 0.000247 s⁻¹; in assay [7] it was 1.45e-06 s⁻¹. In addition, the results for the binding result in assay [5] and in assay [6] were “no binding” and “binds”, respectively.
